# Patent US20070099247A1
# Target: Streptavidin (UniProt P22629)
# Test: flow cytometry of YFP fluorescence on streptavidin coated beads after adding 1 uM biotin
# Streptavidin, sequence (P22629 37-163 limits assumed): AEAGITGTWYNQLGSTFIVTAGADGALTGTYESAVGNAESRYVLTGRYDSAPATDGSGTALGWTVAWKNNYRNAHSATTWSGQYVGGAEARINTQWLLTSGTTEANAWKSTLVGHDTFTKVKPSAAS
substance,measurement,value
Yellow fluorescent protein with streptavidin binding peptide SA-1 inserted after Y145,koff,0.02 s⁻¹
